Test results from the nanobody polyreactivity screen of Harvey et al. (2022).

Assay: yeast display, Sf9 membrane polyspecificity reagent, FACS + sequencing; frameworks hold sequencing errors
Procedure, shortened: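 After 36–48 hours of galactose induction, yeast (Saccharomyces cerevisiae BJ5465) displaying a synthetic nanobody library were stained at 4 °C for 1 hour with 10% biotinylated, detergent-solubilized Sf9 membrane reagent. Streptavidin microbeads enriched the stained cells before FACS sorting into low and high (top ~1%) gates on anti-HA and streptavidin fluorescence. Each clone's polyreactivity label reflects its gate of origin.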

Sequence | polyreactivity (PSR sort gate)
QVQLVESGGGLVLAGGSLRLSCAASGSIFIHYAMGWYRQARGKERELVAAITGDGNTTYADSVKGRFTISRDNAQNTVNLPINSLKPEDTAVYSCAVTIVDYVWAFDYWGQGTQVNVSS | low polyreactivity
QVQLVESGGGLVLAGGSLRLSCAASGSIFNVYAMGWYRQAPGKERELVASITRRRTNYADSVKGRFTISRDNAKNTVYLQMNSLKPEDTAVYYCAATTYVRQYATYDYWGQGTQVTVSS | high polyreactivity
QVQLVESGGGLVLAGGSLRLSCAASGSIFWVNAMGWYRQAPGKERELVAAINYSDGSTSYADSVKGRFTISRDIAKNTVYLQMNSLKPEDTAVYYCNAESFELMYYWGQGTQVTVSS | low polyreactivity
QVQLVESGGGLVLAGGSLRLSCAASGSILGTYAMGWYRQAPGKERELVARISRGGSTNYADSVKGRFTISRDNAKNTVYLQMNSLKPEDTAVYYCAKRLYLPESWRYYYWGQGTQVTVSS | high polyreactivity
QVQLVESGGGLVLAGGSLRLSCAASGSTFGGYAMGWYRQATGKERELVAAISGSGVRTYYADSVKGRFTISRDNAKNTVYLQMNSRKPEDTAVYYCAKRVRYPGDRYYYWGQGTQVTVSS | high polyreactivity
QVQLVESGGGLVLEGGSLRLSCPASGRIFTWNAMGWYRHAPGKERELVASISRSGTSTYYADSVKGRFTISRDNAKNTVYLQMNSLKPEDTAVYYCAAKRYGYKMYYWGQGTQVTVSS | high polyreactivity
QVQLVESGGGLVLPGGSLRLSCAASGITFTYNAMGWYRQAPGQERELVAAISYSGGSTYYADSVKGRFTISRDNAKNTVYLQMNSLTPEDTAVYYCARRRLLYSGGKSGYYGYYYWGQGTQVNVSS | high polyreactivity
QVQLVESGGGLVLPGGSLRLSCAASGSTLYPYAMGWYRQAPGKERELVAAITYGGTSTYYADSVKGRFTISRDNAKNTVYLQMNSQKPEDTALYYCAARGGTTIRYDYWGQGTQVTVSS | high polyreactivity
QVQLVESGGGLVPAGGSLRLSCAASGFTFPAYTRGWYRPAPGKERELVAAITSSGGNTYYADSVKGRFTISRDNAKNTVYLQMNSLKPEDTAVYYCNADASSSPYTDRQYIGADDSWGQGTQVTVSS | low polyreactivity
QVQLVESGGGLVPAGGSLRLSCAASGFTLYRYVMGWYRQAPGKERELVAAITRGGNTNYADSVKGRFTISRDNAKKTVYLQKNSLKPEDTAVYDCARRYRDYGRYGYWGQGTQVTVSS | high polyreactivity
QVQLVESGGGLVPAGGSLRLSCAASGRTFFPYAMAWYRQAPGKEREFVAAITWSGGSTTYADSVKGRFTISRDNAKNTVYLQMNSLKPEDTAVYYCNAGRRRSYSYDYWGQGTQVTVSS | low polyreactivity
QVQLVESGGGLVPAGGSLRLSCAASGRTFPYYDMGWYRQAPGKERELVAAITSGGTTNYADSVKGRFTISRDNAKNTVYLQMNSLKPEDTAVYYCAAGSPWYYFSSYGYWGQGTQVTVSS | low polyreactivity
QVQLVESGGGLVPAGGSLRLSCAASGRTFWIYAMGWYRQAPGKERELVASIRWSTGNTNYADSVKGRFTISRDNAKNTVYLQMNSLLPEDTAVYYCNARRRWRGGPTYIYWGQGTQVTVSS | high polyreactivity
QVQLVESGGGLVPAGGSLRLSCAASGRTFYRYARGWYRKAHGKERELVASITRDGRTNYADSVKGSFTISRDNAKNTVYLQMNSLKPEDTAFYYCNAKLKITHSSSDYWGQGTQVTVSS | high polyreactivity
QVQLVESGGGLVPAGGSLRLSCAASGSIFEGNAMGWYRQAPGKERELVAAISTTGGITYYADSVKGRFTISRDNAKNTVYLQMNSLKPEETAVYYCAADPSQPRIDSSNYDYWGQGTQVTVSS | low polyreactivity
QVQLVESGGGLVPAGGSLRLSCAASGSTFIAYTRGWYRKAPGKERELVAAISGTGGTTYADSVKGRFTISRDNAKNTVYLQMNSLKPEDTAVYYCAAQYRYTYWGQATQVTVSS | low polyreactivity
QVQLVESGGGLVPAGGSLRLSCAASGYIFDYNAMGWYRQAPGKERELVAAITFRDGSTYADSVKGRFTISRDNAKNTVYLQMNSLKPEDTAVYYCNRRSQVHSHSKHDYWGQGTQVTVSS | low polyreactivity
QVQLVESGGGLVPAGGSLRLSSAASGRIFVRNAMGWYRQAPGKERELVAAITRTGASTYYADSVKGRFTISRDNEKNTVYLQMNSLKPEDTAVYFFAAVWGWPYWVYRYDYWGQGTQVTVSS | high polyreactivity
QVQLVESGGGLVPAGGSLRLSWAASGRIFPRNTMGWYRQAPGKERELVAAISVSGGSTYYADSVKGRFTISRDNAKNTVYLQMNSLKPEDTAVYYSAARSARLEYYYWGQGTQVTVSS | high polyreactivity
QVQLVESGGGLVQAAGSLRLSCAASGGTFWFYDMGWYRQAPGKERELVAAINSDGSTYYADSVKGRFTISRDNAKNTVYLQMNSLKPEDTAVYYCAVDQTYVGEGLSEVDVGYWGQGTQVTVSS | low polyreactivity
QVQLVESGGGLVQAAGSLRLSCAASGITFVTYDRGWYRQAPGKEWELVAAISRSGVRTYYADSVKWRFTISRDNAKNTVYLQMNSLKPEDTAVYYCAAERKNKYDYWGLGTQVTVSS | high polyreactivity

Sequence | polyreactivity (PSR sort gate)
QVQLVESGGGLVQAAGSLRLSCAASGNTFRWYVMGWYRQAPGKERELVAAITSSGSNTYYADSVKGRFTISRDNAKNTVYLQMNSLKPEDTAVYYCAARNYGPYDYWGQGTQVTVSS | low polyreactivity
QVQLVESGGGLVQAAGSLRLSCAASGRTFGQYVMGGSRQAPGKERELVAAISGIGGSTYYADSVKGRFTISRDNAKNTVYLQMNSLIPDDTAVYYCAVELYWYPGYDYWGQGTQVTVSS | low polyreactivity
QVQLVESGGGLVQAAGSLRLSCAASGSIFGPNAMGWYRQAPGKERELVASITLSGGSTYYADSVKGRFTISRDNAKNNVYLQMNSLKPVDTAVYYCNADLLPADAPLWVTGGDYWGQGTQVTVSS | low polyreactivity
QVQLVESGGGLVQAAGSLRLSCAASGSIFVRNAMGWYRQAPGKEREFVAAISWRGGTYYADSVKGRFTISRDNAKNTVYLQMNSLKPEDSAVYYCAARLYPTPGNGALGKTAWVYYWGQGTQVTVSS | low polyreactivity
QVQLVESGGGLVQAAGSLRLSCAASGSIFYNYAMGWYRQAPGKERELVAAITSGGITYYADSVKGRFTISRDNAKNTVYLQMNSLKPEYTAVYYCAAESLTGYGHYDYWGQGTQVTVSS | low polyreactivity
QVQLVESGGGLVQAAGSLRLSFAASGGIFSYYVMGWYRQAPGKEREFVASITQRGRTYYADSVKGRFTISRDNAKNTVYLQMNSLKPEDTAVYYCAAGIYAFRRHREEYDYWGQGTQVTVSS | high polyreactivity
QVQLVESGGGLVQAAGSLRLSYAASGSTFVYNGMGSYRQAPAKERELVATISSTGSTNYADSVKGRFTISRDNAKNTVYLQMNSLKPEDTAVYYCATEYITYRAYDYWGQGTQVTVSS | low polyreactivity
QVQLVESGGGLVQAGAILRLSCAASGYIFVSYYLGWYRQAPGKEREVVAAISWRGGSTFYADSVKGRFTISRDNAKNTVYLQMNSLKPEDTAVFYCAVDDWLDWLFADFGYWGQGTQVTVSS | low polyreactivity
QVQLVESGGGLVQAGASLRLSCAASGFIFGGNAMGWYRQAPGKERELVAAISTTGGRTYYADSVKGRFTISRDNAKNTVYLQMNSRKPEDTAVYYCNAGYDSYCRYYWYWYSFNYWGQGTQVNVSS | high polyreactivity
QVQLVESGGGLVQAGASLRLSCAASGFNFDTNTIGWYRQAPGKERELVAVITRRGGRTYDADSVKGRFTISRDNAKNRVYLQMNSLKPVDTAVYYFNSVSYGQYGWGEGTQVTVSS | high polyreactivity
QVQLVESGGGLVQAGASLRLSCAASGFTFTPYAMGWYRQAPGKERELVAGITSGVGRKYADSVKGRFTISRDNAKNTVYLQMNSLKPEDTAVYFCAARYDHWGQGTQVTVSS | high polyreactivity
QVQLVESGGGLVQAGASLRLSCAASGNIFGLYAMGWYRPAPGKERELVAAISDGVSTNYADSVKGRFTISRDNAKITVYLQMNSLKPEDTAVYYCAADQEGYGNWDSEYDYWGQVTQVTVSS | low polyreactivity
QVQLVESGGGLVQAGASLRLSCAASGNILVGNDMGWYRQAPWKERELVAAISSGDTTSYADSVKGRFTISRDNAKNTVYLQMNSLKPEDTAVYYCAVDRSLSPFAYDYWGQGTQVTVSS | low polyreactivity
QVQLVESGGGLVQAGASLRLSCAASGRIFRYNAMGWYRQAPGKERELVAAISSGGSRNYADSVKGRFTTSRDNSKNTVYLQMNSLKPEDTAVYYCNAESVHRYPGWGYDYWGHGTQVTVSS | low polyreactivity
QVQLVESGGGLVQAGASLRLSCAASGRNFHTYGMGWYRQAPGKESELVAAITWTGGSTYYADSVKGRFTISRDNAKNTVYLQMNSLKPEDTAVYYCAADYPRDIIGSMDYWGQGTQVSVSS | low polyreactivity
QVQLVESGGGLVQAGASLRLSCAASGRTFRYYAMGWYRQEPGKERELVAAITSGGSTYYADSVKGRFTISRDNAKKTVYLQMNSLKPEVTAVYYCAAVPAGLWGTYPQFRYGYWGQGTQVTVSS | high polyreactivity
QVQLVESGGGLVQAGASLRLSCAASGRTFWKYVMGWYRQAPGKDRLLVAVISRPAGSTYYADSVKGRFTISRDNAKNTVYLQMNSLKPEDTAVYYCAKRPKNKPVLGDFDHWGQGTQVTVSS | low polyreactivity
QVQLVESGGGLVQAGASLRLSCAASGSIFGVNAMGWYRQAPGKERELVAAISVSGGRTYYADSVKGRFTISRDNAKNTVYLLMNSLKPEDTAVYYCAATTYIWPYDYWGQGTQVTVSS | low polyreactivity
QVQLVESGGGLVQAGASLRLSCAASGSIFRRNAMGWYRQAPGKERELVAAISYRGGSTNYADSVKGRFTISRDNAKNTVYLQMNSLKPEDTAVYYCAAKIYRSSGQGMDYWGQGTQVTVSS | low polyreactivity
QVQLVESGGGLVQAGASLRLSCAASGSIFVRNAMGWYRQAPGKERELVAAISKRGTSTYFADSVKGRFTISRDNAKNTVYLQMNSLKPEDTAVYYCNAVLSNSRSYLIRLDYWGQGTQVTVSS | high polyreactivity
